Measurements taken from doi:10.1101/2022.12.03.518949 (bioRxiv, 2022).

Biological target: His-tagged SARS-CoV-2 RBD (SARS-CoV-2 Wuhan-Hu-1, UniProt P0DTC2)
Assay: BLI

B1: Fab fragment of THSC20.HVTR26 (Fab, V domains shown)
VH: EVQLVESGGGLVQPGGSLRLSCAASGFTVSSNYMSWVRQAPGKGLEWVSAIYSGDSTYYADSVKGRFTISRHNPKNTLYLQMNSLRAEDTAVYYCARLVGALTNIVVSGDGGAFDIWGQGTMVTVSS
VL: SYELTQPASVSGSPGQSITISCTGTSSDVGSYNLVSWYQQHPGKAPKLMIYEVSKRPSGVSNRFSGSKSGNTASLTISGLQAEDEVDYYCCSYAGSSTWVFGGGTKLTVL
- binding result: binds
